Measured values published in patent publication US20030013150A1.

Target: plasminogen
Experiment: cell-based or functional assay

**Q.** For “Bacteriophages which harbored K2S on gpIII (K2S-?) (from UniProt P00750 209-562)”, which fibrinogen-dependent enzymatic activity (amidolytic assay, plasminogen and S-2251) is on record?
**A.** < 0.25 IU/ml
